Experimental data published in the DeepSol protein solubility set.

Experiment: soluble on expression in E. coli; label from the status in PepcDB or PDB records

**Q.** Which “soluble on expression in E. coli” value does the source give for “MVQKEGVLRVITRNSPATYFQDRNGETGFEYELAKRFAERLGVELKIETADNLDDLYAQLSREGGPALAAAGLTPGREDDASVRYSHTYLDVTPQIIYRNGQQRPTRPEDLVGKRIMVLKGSSHAEQLAELKKQYPELKYEESDAVEVVDLLRMVDVGDIDLTLVDSNELAMNQVYFPNVRVAFDFGEARGLAWALPGGDDDSLMNEVNAFLDQAKKEGLLQRLKDRYYGHVDVLGYVGAYTFAQHLQQRLPRYESHFKQSGKQLDTDWRLLAAIGYQESLWQPGATSKTGVRGLMMLTNRTAQAMGVSNRLDPKQSIQGGSKYFVQIRSELPESIKEPDRSWFALAAYNIGGAHLEDARKMAEKEGLNPNKWLDVKKMLPRLAQKQWYAKTRYGYARGGETVHFVQNVRRYYDILTWVTQPLEHHHHHH” here?
**A.** The value was “soluble”.

**Q.** Which “soluble on expression in E. coli” value does the source give for “MVQNNDVDGAFGLLNRLMDSEGMLKIIRRTQFYQKPYMQRKTLSMEASTAIFNEDMNRKMKFLVRKNRPDKHPGQVTS” here?
**A.** The value was “not soluble”.

**Q.** For “MVQSLNTKVDLVIDATAFTGLTDYGQIMIGDRGFEFYHAKDPRKFIQIPWEEVDYVLASVMFKGKWIPRYAIQTKKNGTYTFASKEPKRVLRAIREYVDPDHMVQSLSFFDVIKRGILSIGKKKK”, which “soluble on expression in E. coli” value is on record?
**A.** The value was “not soluble”.

**Q.** For “MVQTVLNSVWLWRSVLLRLTFSDSGSFLGQSFLLFSSGFWSVLVEQLEGFSSGVSVQSVLELSNGWRNLQSDGQDLLLSLQSDIFWPFDVSGQVSLWLDSLANTEVLWSRVSQWVLSLVRLSGLSTEWSWSNFLTWSHLFFQLSCSLY”, which “soluble on expression in E. coli” value is on record?
**A.** The value was “soluble”.

**Q.** For “MVRGVFVGLFSKKQSVLVGVDISSTAVKLLQLSRSGNRFKVEHYAVEPLPLNAVAEKGIVEVEQVGEAIRRAVSRSGTKAKFAAAAVAGSAVITKLIPMPAGLDEQDLEAQIEIEATNYIPYPIEEVSLDFEVLGPVPNNTEMVQVLLAASRSENVELRQSALELGGLTAKVIDVEALAVENAFSLIAQELSVGSNALVALIDIGATMSTLNVLHSGRSLYAREQLFGGKQLTDEVMHRYGMTYEEAGQAKRQGGLPQSYEVEVLGPFKDSVIQQISRLLQFFYAGSEYNRVDCIVLAGGCAVIAGLPAMVEERLGVVTVVANPLAQMTLGAKVQAHTLAQDAPALMIATGLALRSFD”, which “soluble on expression in E. coli” value is on record?
**A.** Its value is “not soluble”.

**Q.** With “MVRLEDYGTWDEALKRLEASRKALLALLREADPAWLSAPLREGAWTPLMVAEHVALVEDSTARVLRRLRRLAAGENLPPVPVKPGEFKDGKPQAPEGVRPKGGLSLEEVLALLDRARAFLLEEVAKADPQNPATFPHPFFGELNPLGWLRAAAYHEAHHLKALQASLPR” as the sequence, how does the “soluble on expression in E. coli” value read?
**A.** The value was “soluble”.

**Q.** With “MVSAGGVVLKGDPPEVLVVSLRGGRVVTLPKGQVEPGERYPETAVREVREETGVEASVLAPLGRVRYYFTVHEPEGPVTVSKEVHYFLMRHLGGTPRPQLTEVEDAFFLPASEALERLSYPNEREMLKRALLRLRARAKKG” as the sequence, how does the “soluble on expression in E. coli” value read?
**A.** Its value is “soluble”.

**Q.** For “MVSLPVVLIADKLAPSTVAALGDQVEVRWVDGPDRDKLLAAVPEADALLVRSATTVDAEVLAAAPKLKIVARAGVGLDNVDVDAATARGVLVVNAPTSNIHSAAEHALALLLAASRQIPAADASLREHTWKRSSFSGTEIFGKTVGVVGLGRIGQLVAQRIAAFGAYVVAYDPYVSPARAAQLGIELLSLDDLLARADFISVHLPKTPETAGLIDKEALAKTKPGVIIVNAARGGLVDEAALADAITGGHVRAAGLDVFATEPCTDSPLFELAQVVVTPHLGASTAEAQDRAGTDVAESVRLALAGEFVPDAVNVGGGVVNEEVAPWLDLVRKLGVLAGVLSDELPVSLSVQVRGELAAEEVEVLRLSALRGLFSAVIEDAVTFVNAPALAAERGVTAEICKASESPNHRSVVDVRAVGADGSVVTVSGTLYGPQLSQKIVQINGRHFDLRAQGINLIIHYVDRPGALGKIGTLLGTAGVNIQAAQLSEDAEGPGATILLRLDQDVPDDVRTAIAAAVDAYKLEVVDLS”, which “soluble on expression in E. coli” value is on record?
**A.** Its value is “soluble”.

**Q.** For “MVTKTITEQRAEVRIFAGNDPAHTATGSSGISSPTPALTPLMLDEATGKLVVWDGQKAGSAVGILVLPLEGTETALTYYKSGTFATEAIHWPESVDEHKKANAFAGSALSHAALP”, which “soluble on expression in E. coli” value is on record?
**A.** Its value is “soluble”.

**Q.** With “MVTNKLITLLPDLATFIVVVNEGSFTAAAKKLGVTPSALSKLITRLENALSVKLFERTTRSLLITESGKKIYQQSVIMVEAAQQAVDISSSEHTVPSGSLTVAAPKAFLTIVLQPLITPFLTKYPKIQLKLRASDGDIDMIAQGIDVVFRLTDKPTEGLVMKEIGKVNLSLCASPTYLEERGIPHLPQELANHDCLFLGETTTDHIWEFVKGTESHVIAVSGRYAVNHSQMRLNGVKDGFGIGIFPDFVIKEALANNEVISVLSDWQIKGNYHGVIAMQYAQNKYIPSRLKVFTEFVKENLMKSKVNDERT” as the sequence, how does the “soluble on expression in E. coli” value read?
**A.** Its value is “not soluble”.
